In patent publication US11278600B2, “Human alpha-galactosidase variants” (Codexis, Inc., priority 2014, dated 2022):
Substitutions are numbered along the chain they refer to.

Key:
Assay type in all cases: biochemical
[1] = HTP-analysis of yeast culture supernatants, no challenge (MUGal hydrolysis)
Summary of the method: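 GLA variants were expressed in INVSc1 yeast grown in SD-Ura broth with glucose at 30° C., and culture supernatants were collected after 66-84 h. Supernatant was mixed with McIlvaine buffer pH 4.8 and MUGal (2 mM stock) in 50 mM citrate, 200 mM KCl, pH 4.6, incubated at 37° C. for 30-180 minutes, then quenched with sodium carbonate.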

[2] = HTP-analysis of supernatants pretreated with acid (MUGal hydrolysis); settings: for Relative Activity of GLA Variants After Challenge at pH 4.2: activity of the variant/activity of Rd2BB (SEQ ID NO: 10), yeast supernatant; for Relative Activity of GLA Variants After Challenge at pH 3.7: activity of the variant/activity of Rd4BB (SEQ ID NO: 15)
Summary of the method: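 MUGal hydrolysis was tracked by fluorescence (Ex 355 nm, Em 448 nm) after a 30-180 min reaction at 37° C. in pH 4.8 McIlvaine/citrate buffer, stopped with 1 M sodium carbonate. Beforehand, yeast (INVSc1) culture supernatants carrying GLA variants were held 1-3 h at 37° C. in acidic McIlvaine buffer, pH 3.3-4.3.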

[3] = HTP-analysis of supernatants pretreated with base (MUGal hydrolysis); settings: for Relative Activity of GLA Variants After Challenge at pH 7.6: activity of the variant/activity of Rd2BB (SEQ ID NO: 10), yeast supernatant; for Relative Activity of GLA Variants After Challenge at pH 9.65: activity of the variant/activity of Rd4BB (SEQ ID NO: 15)
Summary of the method: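 GLA variants secreted from yeast INVSc1; culture supernatants pre-incubated with McIlvaine buffer pH 7.0–8.2 or 200 mM bicarbonate pH 9.1–9.7 at 37° C. for 1–18 h. Residual activity: MUGal (4 mM stock) hydrolysis at pH 4.3–4.8, 37° C., 30–180 min, carbonate quench; fluorescence Ex 355/Em 448 nm.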

[4] = activity of the variant/activity of Rd2BB (SEQ ID NO: 10), yeast supernatant
[5] = activity of the variant/activity of Rd4BB (SEQ ID NO: 15)

B1: 226 (protein)
chain: LDNGLARTPTMGWLHWERFMCNLDCQEEPDSCISEKLFMEMAELMVSEGWKDAGYEYLCIDDCWMAPQRDSEGRLQADPQRFPHGIRQLANYVHSKGLKLGIYADVGNKTCAGFPGSFGYYDIDAQTFADWGVDLLKFDGCYCDSLENLADGYKHMSLALNRTGRSIVYSCEWPLYMWPFQKPNYTEIRQYCNHWRNFADIDDSWASIKSILDWTSFNQETIVDVAGPGGWNDPDMLVIGNFGLSWNQQVTQMALWAIMAAPLFMSNDLRHISPQAKALLQDKDVIAINQDPLGKQGYQLRQGDNFEVWERPLSGLAWAVAMINRQEIGGPRSYTIAVASLGKGVACNPACFITQLLPVKRKLGLYEWTSRLRSHINPTGTVLLQLENTMQMSKDLLL
modifications: Synthetic Polypeptide sequence of Variant No. 226 of mature Human GLA
- Relative Activity of GLA Variants After No Challenge (NC) [1, 4]: + (+ = 0.5 to 1.5 relative activity over Rd2BB (SEQ ID NO: 10))
- Relative Activity of GLA Variants After Challenge at pH 4.2 [2]: + (+ = 0.5 to 1.5 relative activity over Rd2BB (SEQ ID NO: 10))
- Relative Activity of GLA Variants After Challenge at pH 7.6 [3]: ++ (++ = 1.5 to 2.5 relative activity over Rd2BB (SEQ ID NO: 10))

B2: 193 (protein)
chain: B1 chain with A206G, T221R, L365F
modifications: Synthetic Polypeptide sequence of Variant No. 193 of mature Human GLA
- Relative Activity of GLA Variants After No Challenge (NC) [1, 4]: + (+ = 0.5 to 1.5 relative activity over Rd2BB (SEQ ID NO: 10))
- Relative Activity of GLA Variants After Challenge at pH 4.2 [2]: + (+ = 0.5 to 1.5 relative activity over Rd2BB (SEQ ID NO: 10))
- Relative Activity of GLA Variants After Challenge at pH 7.6 [3]: + (+ = 0.5 to 1.5 relative activity over Rd2BB (SEQ ID NO: 10))

B3: 232 (protein)
chain: B1 chain with T221R, L365F, T369S
modifications: Synthetic Polypeptide sequence of Variant No. 232 of mature Human GLA
- Relative Activity of GLA Variants After No Challenge (NC) [1, 4]: ++ (++ = 1.5 to 2.5 relative activity over Rd2BB (SEQ ID NO: 10))
- Relative Activity of GLA Variants After Challenge at pH 4.2 [2]: ++ (++ = 1.5 to 2.5 relative activity over Rd2BB (SEQ ID NO: 10))
- Relative Activity of GLA Variants After Challenge at pH 7.6 [3]: ++ (++ = 1.5 to 2.5 relative activity over Rd2BB (SEQ ID NO: 10))

B4: 229 (protein)
chain: B1 chain with T221R, L365F, R373K, I376V
modifications: Synthetic Polypeptide sequence of Variant No. 229 of mature Human GLA
- Relative Activity of GLA Variants After No Challenge (NC) [1, 4]: + (+ = 0.5 to 1.5 relative activity over Rd2BB (SEQ ID NO: 10))
- Relative Activity of GLA Variants After Challenge at pH 4.2 [2]: − (− = <0.5 relative activity over Rd2BB (SEQ ID NO: 10))
- Relative Activity of GLA Variants After Challenge at pH 7.6 [3]: + (+ = 0.5 to 1.5 relative activity over Rd2BB (SEQ ID NO: 10))

B5: 230 (protein)
chain: B1 chain with T221R, L365F, S374R
modifications: Synthetic Polypeptide sequence of Variant No. 230 of mature Human GLA
- Relative Activity of GLA Variants After No Challenge (NC) [1, 4]: + (+ = 0.5 to 1.5 relative activity over Rd2BB (SEQ ID NO: 10))
- Relative Activity of GLA Variants After Challenge at pH 4.2 [2]: − (− = <0.5 relative activity over Rd2BB (SEQ ID NO: 10))
- Relative Activity of GLA Variants After Challenge at pH 7.6 [3]: + (+ = 0.5 to 1.5 relative activity over Rd2BB (SEQ ID NO: 10))

B6: 227 (protein)
chain: B1 chain with T221R, R325H, L365F
modifications: Synthetic Polypeptide sequence of Variant No. 227 of mature Human GLA
- Relative Activity of GLA Variants After No Challenge (NC) [1, 4]: − (− = <0.5 relative activity over Rd2BB (SEQ ID NO: 10))
- Relative Activity of GLA Variants After Challenge at pH 4.2 [2]: − (− = <0.5 relative activity over Rd2BB (SEQ ID NO: 10))
- Relative Activity of GLA Variants After Challenge at pH 7.6 [3]: − (− = <0.5 relative activity over Rd2BB (SEQ ID NO: 10))

B7: 231 (protein)
chain: B1 chain with T221R, L365F, T369D
modifications: Synthetic Polypeptide sequence of Variant No. 231 of mature Human GLA
- Relative Activity of GLA Variants After No Challenge (NC) [1, 4]: ++ (++ = 1.5 to 2.5 relative activity over Rd2BB (SEQ ID NO: 10))
- Relative Activity of GLA Variants After Challenge at pH 4.2 [2]: ++ (++ = 1.5 to 2.5 relative activity over Rd2BB (SEQ ID NO: 10))
- Relative Activity of GLA Variants After Challenge at pH 7.6 [3]: ++ (++ = 1.5 to 2.5 relative activity over Rd2BB (SEQ ID NO: 10))

B8: 192 (protein)
chain: B1 chain with A206E, T221R, L365F
modifications: Synthetic Polypeptide sequence of Variant No. 192 of mature Human GLA
- Relative Activity of GLA Variants After No Challenge (NC) [1, 4]: + (+ = 0.5 to 1.5 relative activity over Rd2BB (SEQ ID NO: 10))
- Relative Activity of GLA Variants After Challenge at pH 4.2 [2]: + (+ = 0.5 to 1.5 relative activity over Rd2BB (SEQ ID NO: 10))
- Relative Activity of GLA Variants After Challenge at pH 7.6 [3]: + (+ = 0.5 to 1.5 relative activity over Rd2BB (SEQ ID NO: 10))

B9: 228 (protein)
chain: B1 chain with T221R, L365F, R373K
modifications: Synthetic Polypeptide sequence of Variant No. 228 of mature Human GLA
- Relative Activity of GLA Variants After No Challenge (NC) [1, 4]: + (+ = 0.5 to 1.5 relative activity over Rd2BB (SEQ ID NO: 10))
- Relative Activity of GLA Variants After Challenge at pH 4.2 [2]: + (+ = 0.5 to 1.5 relative activity over Rd2BB (SEQ ID NO: 10))
- Relative Activity of GLA Variants After Challenge at pH 7.6 [3]: + (+ = 0.5 to 1.5 relative activity over Rd2BB (SEQ ID NO: 10))

B10: 391 (protein)
chain: LDNGLARTPTMGWLHWERFMCNLDCQEEPDSCISEKLFMEMAERMVSEGWKDAGYEYLCIDDCWMAPQRDSEGRLQADPQRFPHGIRQLANYWHSKGLKLGIYADVGNKTCAGFPGSFGYYDIDAQTFADWGVDLLKFDGCYCDSLENLADGYKHMSLALNRTGRSIVYSCEWPLYMWPFQKPNYTEIRQYCNHWRNFADIDDSWKSIKSILDWTSRNQERIVDVAGPGGWNDPDMLVIGNFGLSWDQQVTQMALWAIMAAPLFMSNDLRHISPQAKALLQDKDVIAINQDPLGKQGYQLRKGDNFEVWERPLSGDAWAVAIINRQEIGGPRSYTIPVASLGKGVACNPACFITQLLPVKRQLGFYNWTSRLKSHINPTGTVLLQLENTMQMSLKDLL
modifications: Synthetic Polypeptide sequence of Variant No. 391 of mature Human GLA
- Relative Activity of GLA Variants After No Challenge (NC) [1, 5]: + (0.5 to 1.5 relative activity over Rd4BB (SEQ ID NO: 15))
- Relative Activity of GLA Variants After Challenge at pH 3.7 [2]: + (0.5 to 1.5 relative activity over Rd4BB (SEQ ID NO: 15))
- Relative Activity of GLA Variants After Challenge at pH 9.65 [3]: − (<0.5 relative activity over Rd4BB (SEQ ID NO: 15))

B11: 394 (protein)
chain: B10 chain with W93R
modifications: Synthetic Polypeptide sequence of Variant No. 394 of mature Human GLA
- Relative Activity of GLA Variants After No Challenge (NC) [1, 5]: + (0.5 to 1.5 relative activity over Rd4BB (SEQ ID NO: 15))
- Relative Activity of GLA Variants After Challenge at pH 3.7 [2]: + (0.5 to 1.5 relative activity over Rd4BB (SEQ ID NO: 15))
- Relative Activity of GLA Variants After Challenge at pH 9.65 [3]: − (<0.5 relative activity over Rd4BB (SEQ ID NO: 15))

B12: 395 (protein)
chain: B10 chain with Y92H, W93V, K206A
modifications: Synthetic Polypeptide sequence of Variant No. 395
- Relative Activity of GLA Variants After No Challenge (NC) [1, 5]: + (0.5 to 1.5 relative activity over Rd4BB (SEQ ID NO: 15))
- Relative Activity of GLA Variants After Challenge at pH 3.7 [2]: + (0.5 to 1.5 relative activity over Rd4BB (SEQ ID NO: 15))
- Relative Activity of GLA Variants After Challenge at pH 9.65 [3]: + (0.5 to 1.5 relative activity over Rd4BB (SEQ ID NO: 15))

B13: 393 (protein)
chain: B10 chain with W93G
modifications: Synthetic Polypeptide sequence of Variant No. 393 of mature Human GLA
- Relative Activity of GLA Variants After No Challenge (NC) [1, 5]: + (0.5 to 1.5 relative activity over Rd4BB (SEQ ID NO: 15))
- Relative Activity of GLA Variants After Challenge at pH 3.7 [2]: − (<0.5 relative activity over Rd4BB (SEQ ID NO: 15))
- Relative Activity of GLA Variants After Challenge at pH 9.65 [3]: − (<0.5 relative activity over Rd4BB (SEQ ID NO: 15))

B14: 392 (protein)
chain: B10 chain with W93T
modifications: Synthetic Polypeptide sequence of Variant No. 392 of mature Human GLA
- Relative Activity of GLA Variants After No Challenge (NC) [1, 5]: + (0.5 to 1.5 relative activity over Rd4BB (SEQ ID NO: 15))
- Relative Activity of GLA Variants After Challenge at pH 3.7 [2]: + (0.5 to 1.5 relative activity over Rd4BB (SEQ ID NO: 15))
- Relative Activity of GLA Variants After Challenge at pH 9.65 [3]: − (<0.5 relative activity over Rd4BB (SEQ ID NO: 15))
